Here are results for eight molecules from article PMC3042207 (British Journal of Pharmacology, 2011).

The term Km denotes the concentration of substrate that gives half-maximal velocity.

For one data set, the system named is CYP2C8. Particulars: ref Ong et al., 2000; cited from earlier work.
Data set [1] has as its system human liver microsomes (HLM). The data set can be described thus: CYP inhibition: 4-HPR metabolite formation in HLM with CYP inhibitors. In kind it is in vitro ADME. The note with it: HLM + 4-HPR; inhibitor alone at 100 µM.
Substrate in data set [2]: CC1=C(/C=C/C(C)=C/C=C/C(C)=C/C(=O)Nc2ccc(O)cc2)C(C)(C)CCC1
The data set can be described thus: Glucuronidation of 4-HPR by UGT 1A1 supersomes. In kind it is in vitro ADME, human. The note with it: other: UGT 1A1, 1 mg·mL^−1; 4-HPR 0-2000 µM, 3 h; 37.0 °C.

Substrate in data set [3]: CC1=C(/C=C/C(C)=C/C=C/C(C)=C/C(=O)Nc2ccc(O)cc2)C(C)(C)CCC1
The data set can be described thus: Metabolism of 4-HPR by CYP2C8 supersomes. In kind it is in vitro ADME, human. The note with it: other: CYP2C8 supersomes; 4-HPR 0-20 µM, 3 h; 37.0 °C.

Substrate in data set [4]: CC1=C(/C=C/C(C)=C/C=C/C(C)=C/C(=O)Nc2ccc(O)cc2)C(C)(C)CCC1
It counts as in vitro ADME, human. Particulars: other: CYP2C8*3, E. coli membranes; 4-HPR 0-20 µM, 3 h; pH 5.0.

Substrate in data set [5]: CC1=C(/C=C/C(C)=C/C=C/C(C)=C/C(=O)Nc2ccc(O)cc2)C(C)(C)CCC1
As to the kind of experiment: Metabolism of 4-HPR by CYP3A5 supersomes. Particulars: other: CYP3A5 supersomes; 4-HPR 0-20 µM, 3 h; 37.0 °C. In kind it is in vitro ADME, human.

Substrate in data set [6]: CC1=C(/C=C/C(C)=C/C=C/C(C)=C/C(=O)Nc2ccc(O)cc2)C(C)(C)CCC1
The data set can be described thus: Glucuronidation of 4-HPR by UGT 1A6 supersomes. It counts as in vitro ADME, human. The note with it: other: UGT 1A6, 1 mg·mL^−1; 4-HPR 0-2000 µM, 3 h; 37.0 °C.

Substrate in data set [7]: CC1=C(/C=C/C(C)=C/C=C/C(C)=C/C(=O)Nc2ccc(O)cc2)C(C)(C)CCC1
The data set can be described thus: Glucuronidation of 4-HPR by UGT 1A3 supersomes. In kind it is in vitro ADME, human. Particulars: other: UGT 1A3, 1 mg·mL^−1; 4-HPR 0-2000 µM, 3 h; 37.0 °C.

Changes are numbered by the printed parent chain. Names may count otherwise. “And” between values parts separate entries of the source, which are not always exact repeats. Equal values may be shown once. Read-outs that look alike come from different tables or passages of the source.

Regarding `CC(=O)N1CCN(c2ccc(OCC3COC(Cn4ccnc4)(c4ccc(Cl)cc4Cl)O3)cc2)CC1` (centres unmarked) [Ketoconazole, ketoconazole], in the data set with CYP2C8, the “concentrations at which CYP2C8 is markedly inhibited” value is recorded as over 10 µM. For the molecule `COc1ccc2[nH]c([S+]([O-])Cc3ncc(C)c(OC)c3C)nc2c1` (centres unmarked) [Omeprazole, omeprazole], the “effect on production of 4′-OH 4-HPR and 4′-oxo 4-HPR, inhibitor alone” value in data set [1] is “very little effect”.

B1: UGT 1A1 (Homo sapiens) (protein)
chain: HAGKILLIPVDGSHWLSMLGAIQQLQQRGHEIVVLAPDASLYIRDGAFYTLKTYPVPFQREDVKESFVSLGHNVFENDSFLQRVIKTYKKIKKDSAMLLSGCSHLLHNKELMASLAESSFDVMLTDPFLPCSPIVAQYLSLPTVFFLHALPCSLEFEATQCPNPFSYVPRPLSSHSDHMTFLQRVKNMLIAFSQNFLCDVVYSPYATLASEFLQREVTVQDLLSSASVWLFRSDFVKDYPRPIMPNMVFVGGINCLHQNPLSQEFEAYINASGEHGIVVFSLGSMVSEIPEKKAMAIADALGKIPQTVLWRYTGTRPSNLANNTILVKWLPQNDLLGHPMTRAFITHAGSHGVYESICNGVPMVMMPLFGDQMDNAKRMETKGAGVTLNVLEMTSEDLENALKAVINDKSYKENIMRLSSLHKDRPVEPLDLAVFWVEFVMRHKGAPHLRPAAHDLTWYQYHSLDVIGFLLAVVLTVAFITFKCCAYGYRKCLGKKGRVKKAHKSKTH
Consider B1, for which, in data set [2], the Km was 716 ± 87 µM.

B2: CYP2C8 (Homo sapiens) (protein)
chain: MEPFVVLVLCLSFMLLFSLWRQSCRRRKLPPGPTPLPIIGNMLQIDVKDICKSFTNFSKVYGPVFTVYFGMNPIVVFHGYEAVKEALIDNGEEFSGRGNSPISQRITKGLGIISSNGKRWKEIRRFSLTTLRNFGMGKRSIEDRVQEEAHCLVEELRKTKASPCDPTFILGCAPCNVICSVVFQKRFDYKDQNFLTLMKRFNENFRILNSPWIQVCNNFPLLIDCFPGTHNKVLKNVALTRSYIREKVKEHQASLDVNNPRDFIDCFLIKMEQEKDNQKSEFNIENLVGTVADLFVAGTETTSTTLRYGLLLLLKHPEVTAKVQEEIDHVIGRHRSPCMQDRSHMPYTDAVVHEIQRYSDLVPTGVPHAVTTDTKFRNYLIPKGTTIMALLTSVLHDDKEFPNPNIFDPGHFLDKNGNFKKSDYFMPFSAGKRICAGEGLARMELFLFLTTILQNFNLKSVDDLKNLNTTAVTKGIVSLPPSYQICFIPV
For B2, the Km in data set [3] is 5.0 ± 3.1 µM and 2.2 ± 1.1 µM.

B3: CYP2C8*3 (Homo sapiens; K399R/R139K) (protein)
chain: B2 chain with R139K, K399R
As to B3, the Km in data set [4] is 18.8 ± 8.3 µM and 8.6 ± 2.5 µM.

B4: CYP3A5 (Homo sapiens) (protein)
chain: MDLIPNLAVETWLLLAVSLVLLYLYGTRTHGLFKRLGIPGPTPLPLLGNVLSYRQGLWKFDTECYKKYGKMWGTYEGQLPVLAITDPDVIRTVLVKECYSVFTNRRSLGPVGFMKSAISLAEDEEWKRIRSLLSPTFTSGKLKEMFPIIAQYGDVLVRNLRREAEKGKPVTLKDIFGAYSMDVITGTSFGVNIDSLNNPQDPFVESTKKFLKFGFLDPLFLSIILFPFLTPVFEALNVSLFPKDTINFLSKSVNRMKKSRLNDKQKHRLDFLQLMIDSQNSKETESHKALSDLELAAQSIIFIFAGYETTSSVLSFTLYELATHPDVQQKLQKEIDAVLPNKAPPTYDAVVQMEYLDMVVNETLRLFPVAIRLERTCKKDVEINGVFIPKGSMVVIPTYALHHDPKYWTEPEEFRPERFSKKKDSIDPYIYTPFGTGPRNCIGMRFALMNMKLALIRVLQNFSFKPCKETQIPLKLDTQGLLQPEKPIVLKVDSRDGTLSGE
On to B4, for which the Km in data set [5] worked out at 19.1 ± 5.0 µM.

B5: UGT 1A6 (Homo sapiens) (protein)
chain: DKLLVVPQDGSHWLSMKDIVEVLSDRGHEIVVVVPEVNLLLKESKYYTRKIYPVPYDQEELKNRYQSFGNNHFAERSFLTAPQTEYRNNMIVIGLYFINCQSLLQDRDTLNFFKESKFDALFTDPALPCGVILAEYLGLPSVYLFRGFPCSLEHTFSRSPDPVSYIPRCYTKFSDHMTFSQRVANFLVNLLEPYLFYCLFSKYEELASAVLKRDVDIITLYQKVSVWLLRYDFVLEYPRPVMPNMVFIGGINCKKRKDLSQEFEAYINASGEHGIVVFSLGSMVSEIPEKKAMAIADALGKIPQTVLWRYTGTRPSNLANNTILVKWLPQNDLLGHPMTRAFITHAGSHGVYESICNGVPMVMMPLFGDQMDNAKRMETKGAGVTLNVLEMTSEDLENALKAVINDKSYKENIMRLSSLHKDRPVEPLDLAVFWVEFVMRHKGAPHLRPAAHDLTWYQYHSLDVIGFLLAVVLTVAFITFKCCAYGYRKCLGKKGRVKKAHKSKTH
As to B5, the Km in data set [6] stood at 422 ± 46 µM.

B6: UGT 1A3 (Homo sapiens) (protein)
chain: GKVLVVPIDGSHWLSMREVLRELHARGHQAVVLTPEVNMHIKEENFFTLTTYAISWTQDEFDRHVLGHTQLYFETEHFLKKFFRSMAMLNNMSLVYHRSCVELLHNEALIRHLNATSFDVVLTDPVNLCAAVLAKYLSIPTVFFLRNIPCDLDFKGTQCPNPSSYIPRLLTTNSDHMTFMQRVKNMLYPLALSYICHAFSAPYASLASELFQREVSVVDILSHASVWLFRGDFVMDYPRPIMPNMVFIGGINCANRKPLSQEFEAYINASGEHGIVVFSLGSMVSEIPEKKAMAIADALGKIPQTVLWRYTGTRPSNLANNTILVKWLPQNDLLGHPMTRAFITHAGSHGVYESICNGVPMVMMPLFGDQMDNAKRMETKGAGVTLNVLEMTSEDLENALKAVINDKSYKENIMRLSSLHKDRPVEPLDLAVFWVEFVMRHKGAPHLRPAAHDLTWYQYHSLDVIGFLLAVVLTVAFITFKCCAYGYRKCLGKKGRVKKAHKSKTH
B6: the Km in data set [7] turned out to be 389 ± 53 µM.
